The source of these data is patent publication US20040087497A1 (Bristol-Myers Squibb, published 2004).

What all share (assay): cell-based or functional assay
In experiment [1] the target is T1, human CD10 (human, UniProt P08473 2-750).
Experiment [2] concerns the target Prostate Specific Antigen (PSA) (human, UniProt P07288 25-261).
The target in experiment [3] is T1, human CD10. The source holds these as a separate data set.
Experiment [4] concerns the target T1, human CD10. The source holds these as a separate data set.
Experiment [5] deals with T1, human CD10. This is another data set of the same source.
The target in experiment [6] is T1, human CD10. The source holds these as a separate data set.
In experiment [7] the target is T1, human CD10. The source holds these as a separate data set.
In experiment [8] the target is T1, human CD10. The source holds these as a separate data set.

Starred links: 1 amine or outer side, 2 acyl side, 3 side chain; linkers in the order of their positions; H or OH if unused. Non-standard residues stand in square brackets, D forms with d. Suc = O=C(CCC(=O)[*:2])[*:1]; Dox = doxorubicin; βAla = NCCC(=O)O A value given as a limit tells only on which side of the number the result lay.

T1 sequence (P08473 2-750): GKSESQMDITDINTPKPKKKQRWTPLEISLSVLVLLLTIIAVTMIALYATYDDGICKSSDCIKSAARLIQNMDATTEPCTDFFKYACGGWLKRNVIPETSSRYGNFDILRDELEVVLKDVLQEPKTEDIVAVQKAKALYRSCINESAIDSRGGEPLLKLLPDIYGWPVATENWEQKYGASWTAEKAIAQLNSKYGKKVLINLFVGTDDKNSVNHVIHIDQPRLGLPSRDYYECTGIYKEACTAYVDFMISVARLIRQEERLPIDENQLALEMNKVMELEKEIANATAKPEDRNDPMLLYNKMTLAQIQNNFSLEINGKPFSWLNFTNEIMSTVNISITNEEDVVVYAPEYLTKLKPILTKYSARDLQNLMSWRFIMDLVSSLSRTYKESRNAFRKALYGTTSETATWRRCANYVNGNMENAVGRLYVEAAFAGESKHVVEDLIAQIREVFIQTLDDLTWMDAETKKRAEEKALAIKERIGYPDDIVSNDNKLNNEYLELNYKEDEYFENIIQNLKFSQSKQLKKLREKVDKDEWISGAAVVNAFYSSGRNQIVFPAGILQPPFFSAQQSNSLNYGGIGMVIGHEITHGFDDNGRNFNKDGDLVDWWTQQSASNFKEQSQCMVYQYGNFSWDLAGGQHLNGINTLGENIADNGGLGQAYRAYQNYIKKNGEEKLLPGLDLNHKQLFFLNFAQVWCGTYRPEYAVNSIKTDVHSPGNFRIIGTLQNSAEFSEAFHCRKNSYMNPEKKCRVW
Sequence of Prostate Specific Antigen (PSA) (P07288 25-261 limits assumed): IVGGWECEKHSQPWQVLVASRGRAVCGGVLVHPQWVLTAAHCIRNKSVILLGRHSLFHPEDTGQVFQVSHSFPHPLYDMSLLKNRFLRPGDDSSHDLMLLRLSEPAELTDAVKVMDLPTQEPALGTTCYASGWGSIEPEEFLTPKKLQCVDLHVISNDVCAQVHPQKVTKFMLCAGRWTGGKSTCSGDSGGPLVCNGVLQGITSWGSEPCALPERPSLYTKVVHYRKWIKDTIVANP

Take Suc-[βAla]IAL-Dox [Suc-βAla-Ile-Ala-Leu-Dox]: the “difference between IC50 of Dox and of Suc-βAla-Ile-Ala-Leu-Dox, CD10 transfected CHO cells” value with human CD10 [1] was about 16 fold. Besides, the “IC50, 3H-thymidine proliferation, 22RV1 cells (CD10- PSA+)” value in experiment [2] stood at 10800 µM. Further, the “IC50, 3H-thymidine proliferation, LnCAP cells (CD10+ PSA+)” value with human CD10 [3] amounted to 150 µM. In addition, in the experiment with human CD10 [4], the “IC50 on LNCaP cells (CD10pos) with 0 nM phosphoramidon” value stood at 0.24 µM, the “IC50 on LNCaP cells (CD10pos) with 30 nM phosphoramidon” value was determined as 1.3 µM, the “IC50 on LNCaP cells (CD10pos) with 100 nM phosphoramidon” value is 3.3 µM and the “IC50 on LNCaP cells (CD10pos) with 300 nM phosphoramidon” value is 7.7 µM. For the same molecule, in the experiment with human CD10 [4], the “IC50 on LNCaP cells (CD10pos) with 1000 nM phosphoramidon” value was determined as 11.3 µM, the “IC50 on LNCaP cells (CD10pos) with 3000 nM phosphoramidon” value stood at 15.4 µM, the “IC50 on Ramos cells (CD10pos) with 0 nM phosphoramidon” value came to 0.51 µM and the “IC50 on Ramos cells (CD10pos) with 30 nM phosphoramidon” value was found to be 2.1 µM. For the same molecule, in the experiment with human CD10 [4], the “IC50 on Ramos cells (CD10pos) with 100 nM phosphoramidon” value stood at 5.3 µM, the “IC50 on Ramos cells (CD10pos) with 300 nM phosphoramidon” value was 8.1 µM, the “IC50 on Ramos cells (CD10pos) with 1000 nM phosphoramidon” value stood at 9.7 µM and the “IC50 on Ramos cells (CD10pos) with 3000 nM phosphoramidon” value amounted to 10.5 µM. For the same molecule, in the experiment with human CD10 [5], the “IC50 on LNCaP cells (CD10pos) with DL-Thiorphan 0” value turned out to be 0.51 µM, the “IC50 on LNCaP cells (CD10pos) with DL-Thiorphan 30” value was determined as 2.1 µM, the “IC50 on LNCaP cells (CD10pos) with DL-Thiorphan 100” value is 5.3 µM and the “IC50 on LNCaP cells (CD10pos) with DL-Thiorphan 300” value came to 8.1 µM. Also, in the experiment with human CD10 [5], the “IC50 on LNCaP cells (CD10pos) with DL-Thiorphan 1000” value is 9.7 µM, the “IC50 on LNCaP cells (CD10pos) with DL-Thiorphan 3000” value was determined as 10.5 µM, the “IC50 on Ramos cells (CD10pos) with DL-Thiorphan 0” value is 0.25 µM and the “IC50 on Ramos cells (CD10pos) with DL-Thiorphan 30” value was 0.27 µM. Besides, in the experiment with human CD10 [5], the “IC50 on Ramos cells (CD10pos) with DL-Thiorphan 100” value was 0.31 µM, the “IC50 on Ramos cells (CD10pos) with DL-Thiorphan 300” value worked out at 0.28 µM, the “IC50 on Ramos cells (CD10pos) with DL-Thiorphan 1000” value stood at 0.44 µM and the “IC50 on Ramos cells (CD10pos) with DL-Thiorphan 3000” value stood at 1.1 µM. Moreover, in the experiment with human CD10 [6], the “IC50, 3H thymidine proliferation, CD10 transfected CHO Clone #3” value stood at 19000 µM; the “IC50, 3H thymidine proliferation, CD10 transfected CHO Clone #5” value was 19000 µM; the “IC50, 3H thymidine proliferation, CD10 transfected CHO Clone #7” value turned out to be 11000 µM; the “IC50, 3H thymidine proliferation, CD10 transfected CHO Clone #8” value amounted to 8400 µM. Also, in the experiment with human CD10 [6], the “IC50, 3H thymidine proliferation, CD10 transfected CHO clone DB4” value is 4200 µM; the “IC50, 3H thymidine proliferation, LnCap cells (CD10 positive)” value worked out at 390 µM; the “IC50, 3H thymidine proliferation, Ramos cells” value stood at 440 µM. Moreover, in the experiment with human CD10 [7], the “Ratio of IC50 Suc-β-Ala-Ile-Ala-Leu/Dox, CD10 transfected CHO Clone #7” value turned out to be 17 ratio; the “Ratio of IC50 Suc-β-Ala-Ile-Ala-Leu/Dox, CD10 transfected CHO Clone #8” value was found to be 15 ratio; the “Ratio of IC50 Suc-β-Ala-Ile-Ala-Leu/Dox, CD10 transfected CHO clone DB4” value turned out to be 14 ratio; the “Ratio of IC50 Suc-β-Ala-Ile-Ala-Leu/Dox, LnCap cells” value turned out to be 3 ratio. Besides, in the experiment with human CD10 [8], the “IC50, proliferation of HL60 cells with supernatant of compound-treated CHO Clone 8 (CD10 Pos.)” value was 2.7 µM and the “IC50, proliferation of HL60 cells with supernatant of compound-treated CHO Clone DB4 (CD10 Pos.)” value came to 5.4 µM.

For Suc-Ile-Ala-Leu-Dox [Suc-Ile-Ala-Leu-Dox], the “IC50, 3H-thymidine proliferation, 22RV1 cells (CD10- PSA+)” value in experiment [2] came out at 14000 µM. For the same molecule, in the experiment with human CD10 [3], the “IC50, 3H-thymidine proliferation, LnCAP cells (CD10+ PSA+)” value was determined as 170 µM.

In the case of Suc-[βAla]LAL-Dox [Suc-βAla-Leu-Ala-Leu-Dox], the “shift of IC50 on LNCaP cells treated with 100 nM of phosphoramidon” value in the experiment with human CD10 [1] was 7 fold. In the experiment with human CD10 [6], the “IC50, 3H thymidine proliferation, CD10 transfected CHO Clone #3” value worked out at 19000 µM; the “IC50, 3H thymidine proliferation, CD10 transfected CHO Clone #5” value came out at 24000 µM; the “IC50, 3H thymidine proliferation, CD10 transfected CHO Clone #7” value turned out to be 13000 µM; the “IC50, 3H thymidine proliferation, CD10 transfected CHO Clone #8” value amounted to 10000 µM. In the experiment with human CD10 [6], the “IC50, 3H thymidine proliferation, CD10 transfected CHO clone DB4” value is 5400 µM; the “IC50, 3H thymidine proliferation, LnCap cells (CD10 positive)” value is 510 µM; the “IC50, 3H thymidine proliferation, Ramos cells” value is 840 µM.

For the molecule Suc-Leu-Ala-Gly-Dox [Suc-Leu-Ala-Gly-Dox], in the experiment with human CD10 [8], the “IC50, proliferation of HL60 cells with supernatant of compound-treated CHO Clone 8 (CD10 Pos.)” value is over 25 µM and the “IC50, proliferation of HL60 cells with supernatant of compound-treated CHO Clone DB4 (CD10 Pos.)” value was over 25 µM.
